The record followed here is paper PMC5469197, “ANGUSTIFOLIA, a Plant Homolog of CtBP/BARS Localizes to Stress Granules and Regulates Their Formation” (Frontiers in Plant Science, 2017).

Holding throughout (assay): co-IP; LUMIER in HEK293TN cells: Prot-A fusion co-transfected with Renilla luciferase fusion (AN always the luciferase fusion with the interactors); luciferase activity before (input) and after pulldown; percentage pulldown = pulldown/input x 100; empty vectors as negative control; positive if more than two times the background
In test [1] the target is PROTEIN KINASE SU… PROTEIN (AIK1), Prot-A fusion (Arabidopsis thaliana).
Test [2] deals with T1, TANDEM CCCH ZINC FINGER (TZF) ATC3H14, Prot-A fusion (Arabidopsis thaliana, UniProt Q9C9N3 1-310).
T1 construct: Tandem CCCH zinc finger protein ATC3H14, Arabidopsis thaliana, AT1G66810; CDS amplified from Col-0 cDNA; source: HEK293TN cells, transfected; not shown: Protein A (Staphylococcus aureus), N-terminal, kept
T1 sequence (looked up): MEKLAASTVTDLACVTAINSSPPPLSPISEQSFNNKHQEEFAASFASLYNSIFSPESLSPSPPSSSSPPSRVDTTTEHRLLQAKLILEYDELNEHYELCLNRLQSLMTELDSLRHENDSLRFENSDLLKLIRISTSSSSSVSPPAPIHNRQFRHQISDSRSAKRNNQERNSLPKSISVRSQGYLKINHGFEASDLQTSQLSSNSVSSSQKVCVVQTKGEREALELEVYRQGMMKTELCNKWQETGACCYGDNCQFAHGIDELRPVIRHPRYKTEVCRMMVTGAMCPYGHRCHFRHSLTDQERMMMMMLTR
To be noted: partners not purified.

The target of test [3] is T2, PROTEIN MEI2-LIKE 5 (ATML5), Prot-A fusion (Arabidopsis thaliana, UniProt Q8VWF5 1-800).
T2 construct: Protein MEI2-like 5, Arabidopsis thaliana, AT1G29400; CDS amplified from Col-0 cDNA; source: HEK293TN cells, transfected; not shown: Protein A (Staphylococcus aureus), N-terminal, kept
T2 sequence (looked up): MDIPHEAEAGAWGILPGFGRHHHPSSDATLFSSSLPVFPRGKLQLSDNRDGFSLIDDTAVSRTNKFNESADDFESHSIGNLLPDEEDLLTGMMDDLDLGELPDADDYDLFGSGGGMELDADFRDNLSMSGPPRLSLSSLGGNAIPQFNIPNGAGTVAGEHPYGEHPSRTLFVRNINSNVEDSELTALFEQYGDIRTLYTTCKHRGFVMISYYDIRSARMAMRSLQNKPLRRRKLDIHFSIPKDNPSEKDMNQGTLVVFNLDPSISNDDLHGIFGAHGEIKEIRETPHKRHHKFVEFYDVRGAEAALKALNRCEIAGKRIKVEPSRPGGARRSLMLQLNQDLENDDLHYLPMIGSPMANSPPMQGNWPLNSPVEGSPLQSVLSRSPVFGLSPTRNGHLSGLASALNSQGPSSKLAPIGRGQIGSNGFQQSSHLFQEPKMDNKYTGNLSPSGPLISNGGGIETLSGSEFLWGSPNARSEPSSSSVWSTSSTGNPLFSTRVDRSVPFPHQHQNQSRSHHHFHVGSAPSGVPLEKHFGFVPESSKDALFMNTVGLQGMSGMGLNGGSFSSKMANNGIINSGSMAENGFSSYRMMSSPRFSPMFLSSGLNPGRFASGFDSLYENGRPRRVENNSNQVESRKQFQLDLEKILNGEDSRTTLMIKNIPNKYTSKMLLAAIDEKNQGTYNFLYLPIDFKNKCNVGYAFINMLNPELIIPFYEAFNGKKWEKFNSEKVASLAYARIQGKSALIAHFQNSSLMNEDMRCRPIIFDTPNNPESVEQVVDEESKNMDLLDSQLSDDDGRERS
To be noted: partners not purified.

Chain of PROTEIN KINASE SU… PROTEIN (AIK1), Prot-A fusion (Arabidopsis thaliana) (main, as listed by the source): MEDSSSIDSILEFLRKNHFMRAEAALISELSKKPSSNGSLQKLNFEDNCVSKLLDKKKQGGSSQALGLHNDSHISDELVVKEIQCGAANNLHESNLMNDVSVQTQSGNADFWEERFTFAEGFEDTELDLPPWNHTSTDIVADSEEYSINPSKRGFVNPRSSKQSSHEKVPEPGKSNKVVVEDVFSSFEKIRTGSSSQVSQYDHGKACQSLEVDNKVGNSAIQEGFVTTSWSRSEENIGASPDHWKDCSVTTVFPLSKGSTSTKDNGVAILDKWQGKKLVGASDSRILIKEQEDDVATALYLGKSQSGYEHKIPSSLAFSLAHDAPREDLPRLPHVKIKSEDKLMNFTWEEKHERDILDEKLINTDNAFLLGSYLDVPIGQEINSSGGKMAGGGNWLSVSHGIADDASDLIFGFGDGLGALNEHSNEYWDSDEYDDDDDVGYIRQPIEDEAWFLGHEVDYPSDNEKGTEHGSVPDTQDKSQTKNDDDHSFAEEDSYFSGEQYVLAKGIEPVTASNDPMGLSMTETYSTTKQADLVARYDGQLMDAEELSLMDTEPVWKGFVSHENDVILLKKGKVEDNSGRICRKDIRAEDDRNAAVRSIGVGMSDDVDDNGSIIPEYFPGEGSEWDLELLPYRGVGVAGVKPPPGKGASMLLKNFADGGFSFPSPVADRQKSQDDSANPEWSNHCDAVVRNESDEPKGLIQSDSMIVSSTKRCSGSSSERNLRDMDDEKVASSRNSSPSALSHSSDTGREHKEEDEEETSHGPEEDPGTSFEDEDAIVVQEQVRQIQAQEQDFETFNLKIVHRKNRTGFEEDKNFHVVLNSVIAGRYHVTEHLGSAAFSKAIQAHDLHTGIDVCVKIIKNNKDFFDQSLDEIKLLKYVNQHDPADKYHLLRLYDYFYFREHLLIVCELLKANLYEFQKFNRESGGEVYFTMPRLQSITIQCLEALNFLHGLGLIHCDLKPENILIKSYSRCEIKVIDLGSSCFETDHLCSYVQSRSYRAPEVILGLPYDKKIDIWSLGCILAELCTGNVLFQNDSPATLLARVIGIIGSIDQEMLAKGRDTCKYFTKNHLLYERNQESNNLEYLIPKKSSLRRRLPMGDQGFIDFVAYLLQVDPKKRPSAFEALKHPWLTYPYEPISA

B1: AN, Renilla luciferase fusion (LUMIER) (natural protein, Arabidopsis thaliana, UniProt O23702 1-636, looked up)
chain: MSKIRSSATMPHRDQPSPASPHVVTLNCIEDCALEQDSLAGVAGVEYVPLSRIADGKIESATAVLLHSLAYLPRAAQRRLRPHQLILCLGSADRAVDSTLAADLGLRLVHVDTSRAEEIADTVMALILGLLRRTHLLSRHALSASGWLGSLQPLCRGMRRCRGMVLGIVGRSVSARYLASRSLAFKMSVLYFDVPEGDEERIRPSRFPRAARRMDTLNDLLAASDVISLHCALTNDTVQILNAECLQHIKPGAFLVNTGSCQLLDDCAVKQLLIDGTIAGCALDGAEGPQWMEAWVKEMPNVLILPRSADYSEEVWMEIREKAISILHSFFLDGVIPSNTVSDEEVEESEASEEEEQSPSKHEKLAIVESTSRQQGESTLTSTEIVRREASELKESLSPGQQHVSQNTAVKPEGRRSRSGKKAKKRHSQQKYMQKTDGSSGLNEESTSRRDDIAMSDTEEVLSSSSRCASPEDSRSRKTPLEVMQESSPNQLVMSSKKFIGKSSELLKDGYVVALYAKDLSGLHVSRQRTKNGGWFLDTLSNVSKRDPAAQFIIAYRNKDTVGLRSFAAGGKLLQINRRMEFVFASHSFDVWESWSLEGSLDECRLVNCRNSSAVLDVRVEILAMVGDDGITRWID
notes: ANGUSTIFOLIA (AN), Arabidopsis thaliana, AT1G01510; CDS amplified from Col-0 cDNA; in the dimerisation test the second copy must have been the N-terminal protein A fusion (surmised from the LUMIER format); also called wild-type AN; source: HEK293TN cells, transfected; not shown: Renilla reniformis luciferase, N-terminal, kept
For B1, the fold change from background stood at 223 fold in test [1], 4.92 fold in test [2] and 5.04 fold in test [3]. Moreover, the percentage pulldown worked out at 36% in test [1], 0.47% in test [2] and 0.47% in test [3].
